Measurements: paper PMC8632296 (mAbs, 2021)

Tests used:
[1] = target: recombinant human carbonic anhydrase IX extracellular domain, monomer (human, UniProt Q16790); assay: SPR
[2] = target: recombinant human carbonic anhydrase IX extracellular domain, dimer (Homo sapiens, UniProt Q16790); assay: SPR
[3] = target: human carbonic anhydrase IX on cells and in tumour tissue (Homo sapiens, UniProt Q16790); assay: plate-based cell binding assay

| Kd [1] | koff [1] | kon [1] | Kd [2] | koff [2] | kon [2] | EC50 [3] | Binder |
| --- | --- | --- | --- | --- | --- | --- | --- |
| 0.826 nM | 0.00019 s⁻¹ | 229000 M⁻¹ s⁻¹ | 0.189 nM | 7.68e-05 s⁻¹ | 406000 M⁻¹ s⁻¹ | 1.16 nM | m4A2, recombinant murine anti-hCAIX antibody (mouse IgG2a) (antibody, V domains shown) VH: EVKLEESGGGLVQPGRSMKLSCVASGFTFSYYWMDWVRQSPEKGLEWVAEIRLKSDNYATHYAESVKGRFTISRDDSKSSVYLQMNNLRAEDTGIYYCTRAPHYYGYFDYWGQGTTLTVSS VL: QIVLTQSPAVMSAFPGEKVTMTCSASSSVGYMHWYQQKAGSSPRLLIYDTSNLSSGVPARCSGSGSGTSYSLTISRMEAEDAATYYCQQWRSYPPTFGGGTKLEIK |
| – | – | – | – | – | – | 21.8 nM | m9B6, recombinant murine anti-hCAIX antibody (mouse IgG2a) (antibody, V domains shown) VH: QVQLQQPGAELVKPGASVKLSCKASGYIFTTKWINWVKQRPGQGLEWIGNIYPGSSNTYYNEKFKNKATLTVDKSSNTAHLQLSSLTSEDSAVYYCARGIANWGQGTPVTVSA VL: DIVLTQSPSSLAVSLGQRATISCKASQSVDYDGNSYMNWFQQKPGQPPKLLIYEASSLESGIPARISGSGSGTDFTLNIHPVEEEDAATYYCQQSYEGPYTFGGGTKLEIK |
| 34.5 nM | 0.0524 s⁻¹ | 1.52e+06 M⁻¹ s⁻¹ | 0.032 nM | 0.000115 s⁻¹ | 3.58e+06 M⁻¹ s⁻¹ | 0.221 nM | c12H8, recombinant chimeric anti-hCAIX antibody (human IgG1) (antibody, V domains shown) VH: QIQLVQSGPELKKPGETVKISCKASGYTFTNYGMNWVQQAPGKGLKWMGWINTYTGEPTYADDFKGRFAFSLETSASTAYLQINNLKNEDMATYFCARGGIATPTSYWGQGTTLTVSS VL: not shown |
